This is an account of results in article PMC7199855, “GRAF2, WDR44, and MICAL1 mediate Rab8/10/11–dependent export of E-cadherin, MMP14, and CFTR ΔF508” (The Journal of Cell Biology, 2020).

One assay concerns the target T1, GST–WDR44 ΔC (human, UniProt Q5JSH3 1-472).
T1 construct: aa 1–472 of human WDR44 (N-tag clone: forward primer begins at codon 2); source: E. coli BL21(DE3) pLysS, purified on glutathione sepharose beads; not shown: GST, N-terminal, kept
T1 sequence (looked up): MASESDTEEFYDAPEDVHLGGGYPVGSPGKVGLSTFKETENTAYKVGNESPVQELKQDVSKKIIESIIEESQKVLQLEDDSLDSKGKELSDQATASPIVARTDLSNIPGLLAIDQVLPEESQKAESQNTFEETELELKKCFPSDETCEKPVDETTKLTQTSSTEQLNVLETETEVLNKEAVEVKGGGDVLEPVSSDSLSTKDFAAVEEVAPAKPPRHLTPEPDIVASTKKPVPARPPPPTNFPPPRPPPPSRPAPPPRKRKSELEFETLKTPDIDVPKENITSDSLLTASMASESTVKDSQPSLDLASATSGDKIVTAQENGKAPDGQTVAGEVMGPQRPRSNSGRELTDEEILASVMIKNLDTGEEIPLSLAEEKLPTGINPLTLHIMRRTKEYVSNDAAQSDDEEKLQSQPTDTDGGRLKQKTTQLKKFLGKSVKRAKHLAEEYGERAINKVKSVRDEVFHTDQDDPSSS
Nature of the assay: pull-down; in vitro: GST-tagged WDR44 or MICAL1 domains on glutathione sepharose beads with an equal amount of Thrombin-released GRAF2 SH3, 30 min 4°C, washed in bacterial lysis buffer (20 mM Hepes pH 7.4, 1 mM DTT, NaCl); Coomassie staining. Particulars: both partners purified.

The target in a further assay is T2, GST–MICAL1 ΔMOΔCH (human, UniProt Q8TDZ2 651-1067).
T2 construct: aa 651–1067 of human MICAL1; source: E. coli BL21(DE3) pLysS, purified on glutathione sepharose beads; not shown: GST, N-terminal, kept
T2 sequence (looked up): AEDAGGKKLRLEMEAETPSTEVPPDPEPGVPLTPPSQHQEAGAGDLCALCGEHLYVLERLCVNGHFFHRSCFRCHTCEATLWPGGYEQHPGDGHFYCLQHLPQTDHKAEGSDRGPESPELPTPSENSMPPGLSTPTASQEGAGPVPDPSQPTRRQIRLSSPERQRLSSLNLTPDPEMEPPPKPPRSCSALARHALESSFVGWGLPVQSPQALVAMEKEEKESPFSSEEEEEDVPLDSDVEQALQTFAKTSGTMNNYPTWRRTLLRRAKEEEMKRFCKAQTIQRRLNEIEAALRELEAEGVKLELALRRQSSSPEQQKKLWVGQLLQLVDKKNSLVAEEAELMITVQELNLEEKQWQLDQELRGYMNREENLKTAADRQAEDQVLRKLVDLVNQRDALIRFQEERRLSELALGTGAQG
The description is as above. As to conditions: both partners purified.

B1: GRAF2 SH3 (released from GST by Thrombin) (domain or fragment, human, UniProt A1A4S6 718-786, looked up)
chain: ATVADKPPESIRSRKARAVYPCEAEHSSELSFEIGAIFEDVQTSREPGWLEGTLNGKRGLIPQNYVKLL
notes: SH3 domain construct, aa 718–786 of human GRAF2; same construct as m2 with GST cut off; source: E. coli BL21(DE3) pLysS; released from GST-GRAF2 SH3 beads with Thrombin; not shown: GST, N-terminal, cleaved
With B1, the binding result in the assay with GST–WDR44 ΔC and with GST–MICAL1 ΔMOΔCH was “binds” in each case.
